According to patent US20240409645A1 (DUALYX, published 2024):
Residue numbers refer to the chain shown, from its start.

How the values were obtained:
[1] = target: T1, human interleukin-2 receptor α-chain (human, UniProt P01589 22-240, limits assumed); test: SPR (Biacore 3000) off-rate ranking, periplasmic extract over immobilised human IL-2Rα
T1 construct: Recombinant human IL-2Rα protein, coated on the ELISA plate or amine-coupled to a CM5 chip; also called human IL-2Rα; hu IL-2R
T1 sequence: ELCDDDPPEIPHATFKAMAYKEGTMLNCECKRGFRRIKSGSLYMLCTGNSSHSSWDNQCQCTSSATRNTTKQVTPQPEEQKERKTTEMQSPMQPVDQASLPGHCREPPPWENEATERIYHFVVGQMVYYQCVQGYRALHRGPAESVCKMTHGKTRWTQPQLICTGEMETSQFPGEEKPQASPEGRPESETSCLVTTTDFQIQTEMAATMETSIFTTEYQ
Procedure: SPR was performed to determine dissociation rates using Biacore 3000 instrument (GE Healthcare). Briefly, human and mouse IL-2R proteins were immobilized on carboxylmethyl dextran sensor chip (CM5) at approximately 2500 RUs using amine coupling in acetate buffer (GE Healthcare). The VHH-containing P.E. were loaded with a flow rate of 30 uL/min and the off-rates were measured over a 120s period.

[2] = target: T1, human interleukin-2 receptor α-chain; test: binding ELISA, periplasmic extract 1:5 on coated human IL-2Rα, anti-c-myc detection
Procedure: In a binding ELISA, human or mouse IL-2Rα, IL-2Rβ and IL-2Rγ proteins were coated directly on maxisorp microtiter plates overnight at 4° C. Free binding sites were blocked using 4% Marvel in PBS for 1 hour. Next, 1:5 dilution of P.E. in 1% Marvel/PBS were added to wells and incubated for 1 hour. […] Binding specificity was determined based on O.D. at 450 nm values compared to negative controls.

[3] = target: T2, mouse IL-2Rα, recombinant protein (mouse, UniProt P01590 22-236, limits assumed); test: P.E. off-rate SPR
T2 construct: also called moIL2R-a
T2 sequence (looked up): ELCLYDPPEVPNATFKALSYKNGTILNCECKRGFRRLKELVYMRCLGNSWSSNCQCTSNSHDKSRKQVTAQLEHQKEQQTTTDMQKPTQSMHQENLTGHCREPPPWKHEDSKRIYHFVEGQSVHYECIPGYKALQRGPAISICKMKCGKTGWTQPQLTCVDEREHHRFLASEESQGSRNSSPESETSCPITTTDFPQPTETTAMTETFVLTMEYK
How it was run: (§1)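 First, the IL-2R protein is immobilised via amine coupling in acetate buffer to roughly 2500 RU on a CM5 sensor chip. Next, the VHH extract is loaded at 30 uL/min. Finally, dissociation is recorded for 120s.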

[4] = target: T3, human interleukin-2 receptor α-chain (IL-2Rα; CD25), recombinant protein (human, UniProt P01589 22-240, limits assumed); test: P.E. off-rate SPR
T3 construct: also called huIL2R-a; hIL-2RA
T3 sequence: T1 sequence
How it was run: as §1

[5] = target: T2, mouse IL-2Rα, recombinant protein; test: P.E. binding ELISA
How it was run: (§2)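 Human or mouse IL-2Rα, IL-2Rβ or IL-2Rγ protein coated directly overnight at 4° C, blocked with 4% Marvel/PBS for 1 hour.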

[6] = target: T3, human interleukin-2 receptor α-chain …; test: P.E. binding ELISA
How it was run: as §2

mouse IL-2Rα = target: T4, mouse IL-2Rα (mouse, UniProt P01590 22-236, limits assumed); test: SPR (Biacore 3000) off-rate ranking, periplasmic extract over immobilised mouse IL-2Rα
T4 construct: Recombinant mouse IL-2Rα protein, coated on the ELISA plate or amine-coupled to a CM5 chip; also called mo IL-2R; moIL2R-a
T4 sequence (looked up): T2 sequence (looked up)

B1: FJ1427_P035MP05F11 (VHH)
VHH: QVQLVESGGGSVQAGGSLRLSCAASGRTLYSSYGMAWFRQAPGKERDFVGSISRYGTYTSYADSVKDRFTISRDNAKSTVYLQMNNTKPEDTAVYYCAAYTYSGSFYSAVKTHRDEYQYWGQGTQVTVSS
notes: Tested as soluble VHH in a crude periplasmic extract (P.E.); CDR3 family 15; also called Clone nr; 470
Q: How did the koff [1] turn out when B1 was run?
A: 0.00173 s⁻¹

Q: And the “PE binding ELISA (OD450 nm)” value [2]?
A: 2.27 OD450

B2: FJ1427_P035MP05D12 (VHH)
VHH: B1 VHH with V2L, A109T
notes: Tested as soluble VHH in a crude periplasmic extract (P.E.); CDR3 family 15; also called Clone nr
Q: For B2, which koff [1] is on record?
A: 0.00235 s⁻¹

Q: And the “PE binding ELISA (OD450 nm)” value [2]?
A: 2.39 OD450

B3: 12-MP05B12 VHH (periplasmic extract) (VHH)
VHH: QVQLVESGGGLVQAGGSLRLSCAASGFTFDGYAIGWFRQAPGKEREGVSYITGSDGSTYYADSVKGRFTISSNNAKNTVYLHMNSLKPDDAAVYYCAIDRLGSRGAYVPIWWRSSDMDLWGKGTLVTVSS
notes: soluble VHH in periplasmic extract
Q: Which results are given for B3?
A: koff [3]: 0.000547 s⁻¹; koff [4]: 0.000222 s⁻¹; OD450 nm [5]: 0.936 OD450 nm; OD450 nm [6]: 2.14 OD450 nm

B4: 9-MP05G01 VHH (periplasmic extract) (VHH)
VHH: EVQLVESGGGLVQAGGSLRLSCAASGGSIYTYNMGWFRQAPGKEREFVAGTLWSGGDSVYADFAKGRFTLSRENAKNTLYLQMNSLKPEDTATYYCAIDPLSLTSDWRVDELSSWGKGTLVTVSS
notes: as for B3
Q: Which results are given for B4?
A: koff [3]: 0.0442 s⁻¹; koff [4]: 0.000169 s⁻¹; OD450 nm [5]: 0.047 OD450 nm; OD450 nm [6]: 2.35 OD450 nm

B5: FJ1427_P035MP05C12 (VHH)
VHH: EVQLVESGGGLVQAGDSLRLSCAASGFNFGWHAMGWFRQAPGKEREFVATITWTGRDTYYADSVRGRFTISKDNAKNTLFLQMSSLRPDDTGVYYCAKARERATWAYSEDDCDYWGQGTQVTVSS
notes: Tested as soluble VHH in a crude periplasmic extract (P.E.); CDR3 family 1; also called Clone nr
Q: B5 was tested. Which koff [1] did it give?
A: 0.000874 s⁻¹

Q: And the “PE binding ELISA (OD450 nm)” value [2]?
A: 2.4 OD450

B6: FJ1427_P035MP05E12 (VHH)
VHH: B5 VHH with E1Q, V2L, N77D, S84N
notes: as for B5
Q: With B6 as the binder, how does the koff [1] read?
A: 0.000273 s⁻¹

Q: What about the “PE binding ELISA (OD450 nm)” value [2] of the same binder?
A: 2.15 OD450

B7: FJ1427_P035MP05F12 (VHH)
VHH: QLQLVESGGGLVQAGGSLRLSCLASGLTFDGYAIGWFRQAPGKELEGVSYITGSDGSSYYADSVKGRFTISSDNAKNTVYLHMNSLKPDDAAVYYCAIDHLGSRGGYHSSWWRSSDMDLWGKGTLVTVSS
notes: Tested as soluble VHH in a crude periplasmic extract (P.E.); CDR3 family 4; also called Clone nr
Q: For B7, which koff (mouse IL-2Rα) is on record?
A: 0.00463 s⁻¹

Q: What about the koff [1] of the same binder?
A: 0.000469 s⁻¹

Q: And the “PE binding ELISA (OD450 nm)” value [2]?
A: 2.19 OD450

B8: 4-MP01F04 VHH (periplasmic extract) (VHH)
VHH: QVQLVESGGGLVQAGGSLRLSCAASGGTFRTRNMGWFRRAPGKEREFVAAVSWNVDNKLYADSVKGRFTISRDNGRNMVYLQMNSLKPEDTAVYYCAADNIPLSSDMRPTATEYDYWGQGTQVTVSS
notes: as for B3
Q: B8 was tested. Which koff [3] did it give?
A: 0.256 s⁻¹

Q: And the koff [4]?
A: 0.000258 s⁻¹

Q: What about the OD450 nm [5] of the same binder?
A: 0.046 OD450 nm

Q: And the OD450 nm [6]?
A: 2.49 OD450 nm

B9: 11-MP05H04 VHH (periplasmic extract) (VHH)
VHH: QLQLVESGGGLVQAGGSLRLSCAASGLTFEGYAIGWFRQAPGKEREGVSYITGSDGTTYYINSVKGRFTISSDNAKSTVYLQMNTLKPEDTAVYYCAVDRLGSQGRYASAWWRSGDMDLWGKGTQVTVSS
notes: as for B3
Q: How did the koff [3] turn out when B9 was run?
A: 0.00163 s⁻¹

Q: What about the koff [4] of the same binder?
A: 0.0012 s⁻¹

Q: What about the OD450 nm [5] of the same binder?
A: 0.163 OD450 nm

Q: And the OD450 nm [6]?
A: 2.22 OD450 nm
